The results in this text go back to patent EP4538294A1 (Shandong Simcere Biopharmaceutical Co., Ltd., dated 2025).

“And” between values parts separate entries of the source, which are not always exact repeats. Identical values can stand only once.

Sequences and labels used below:
B1: antiFITC×CD3-Hab01 (bispecific antibody, human IgG4 S228P, kappa, F234A L235A)
heavy: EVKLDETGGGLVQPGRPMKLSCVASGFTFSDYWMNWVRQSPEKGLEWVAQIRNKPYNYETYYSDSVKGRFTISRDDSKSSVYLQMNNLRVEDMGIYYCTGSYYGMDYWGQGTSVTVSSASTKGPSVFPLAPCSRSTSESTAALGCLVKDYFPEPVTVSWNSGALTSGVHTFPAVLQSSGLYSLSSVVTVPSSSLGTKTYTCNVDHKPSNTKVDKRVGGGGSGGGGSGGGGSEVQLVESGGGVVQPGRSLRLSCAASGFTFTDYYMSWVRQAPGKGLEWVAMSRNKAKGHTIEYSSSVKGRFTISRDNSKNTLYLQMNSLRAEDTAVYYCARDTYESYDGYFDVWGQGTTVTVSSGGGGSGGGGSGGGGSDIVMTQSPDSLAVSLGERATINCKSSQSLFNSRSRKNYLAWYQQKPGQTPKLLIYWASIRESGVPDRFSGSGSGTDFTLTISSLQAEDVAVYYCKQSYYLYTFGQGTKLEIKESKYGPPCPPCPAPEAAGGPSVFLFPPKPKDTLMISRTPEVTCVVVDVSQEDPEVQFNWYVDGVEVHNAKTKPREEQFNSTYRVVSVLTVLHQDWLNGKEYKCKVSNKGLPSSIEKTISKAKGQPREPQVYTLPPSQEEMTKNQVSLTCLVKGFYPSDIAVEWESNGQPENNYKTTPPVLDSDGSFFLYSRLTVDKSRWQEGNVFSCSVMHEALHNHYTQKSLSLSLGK
light: DVVMTQTPLSLPVSLGDQASISCRSSQSLVHSNGNTYLRWYLQKPGQSPKVLIYKVSNRFSGVPDRFSGSGSGTDFTLKISRVEAEDLGVYFCSQSTHVPWTFGGGTKLEIKRTVAAPSVFIFPPSDEQLKSGTASVVCLLNNFYPREAKVQWKVDNALQSGNSQESVTEQDSKDSTYSLSSTLTLSKADYEKHKVYACEVTHQGLSSPVTKSFNRGEC
notes: Negative control for the tumor antigens, prepared internally; carries the CD3-Hab01 arm
B2: Tri-59 (trispecific antibody, V domains shown)
VHH: EVQLVESGGGLVQPGGSLRLSCAASESISSIHIMAWYRQAPGKQRELVAGIRNDGSTVYVDSVKGRFTISRDNAKNSLYLQMNSLRAEDTAVYYCNADQGFGSYSEWERRSRWGQGTTVTVSS
VH 1: EVQLVQSGAEVKKPGSSVKVSCKASGYTFTSYGISWVRQAPGQGLEWMGEIYPRSGNTYYNEKFKGRVTLTADKSTSTAYMELSSLRSEDTAVYYCARGRAYGRNYPMDYWGQGTTVTVSS
VL 1: EIVLTQSPATLSLSPGERATLSCRASQSIGTSIHWYQQKPGQSPRLLIKYASESISGIPARFSGSGSGTDFTLTISSLEPEDFAVYYCQQSNSWPYTFGGGTKVEIK
VH 2: EVQLVESGGGVVQPGRSLRLSCAASGFTFTDYYMSWVRQAPGKGLEWVAMSRNKAKGHTIEYSSSVKGRFTISRDNSKNTLYLQMNSLRAEDTAVYYCARDTYESYDGYFDVWGQGTTVTVSS
VL 2: DIVMTQSPDSLAVSLGERATINCKSSQSLFNSRSRKNYLAWYQQKPGQTPKLLIYWASIRESGVPDRFSGSGSGTDFTLTISSLQAEDVAVYYCKQSYYLYTFGQGTKLEIK
B3: Tri-35 (trispecific antibody, V domains shown)
VHH: EVQLVESGGGLVQPGGSLRLSCSASGFTLDYYMIGWFRQAPGKEREGLSSISPADGSTYYADSVKGRFTISRDSSKNTVYLQMNSLRAEDTAVYYCAAGNEATISWGFGPWEYDYWGQGTMVTVSS
VH 1: B2 VH 1
VL 1: B2 VL 1
VH 2: B2 VH 2
VL 2: B2 VL 2
B4: Tri-41 (trispecific antibody, V domains shown)
VHH: B3 VHH
VH 1: B2 VH 1
VL 1: B2 VL 1
VH 2: B2 VH 2
VL 2: B2 VL 2
B5: Tri-55 (trispecific antibody, V domains shown)
VHH: B2 VHH
VH 1: B2 VH 1
VL 1: B2 VL 1
VH 2: B2 VH 2
VL 2: B2 VL 2
B6: Tri-46 (trispecific antibody, V domains shown)
VHH: B2 VHH
VH 1: B2 VH 1
VL 1: B2 VL 1
VH 2: B2 VH 2
VL 2: B2 VL 2
B7: Tri-29 (trispecific antibody, V domains shown)
VHH: B3 VHH
VH 1: B2 VH 1
VL 1: B2 VL 1
VH 2: B2 VH 2
VL 2: B2 VL 2
B8: Tri-32 (trispecific antibody, V domains shown)
VHH: B3 VHH
VH 1: B2 VH 1
VL 1: B2 VL 1
VH 2: B2 VH 2
VL 2: B2 VL 2
B9: JNJ7564 (bispecific antibody, human IgG4 S228P, kappa, lambda, F234A L235A)
heavy 1: not shown
light 1: DIQMTQSPSSLSASVGDRVTITCKASQNVATHVGWYQQKPGKAPKRLIYSASYRYSGVPSRFSGSGSGTEFTLTISNLQPEDFATYYCQQYNRYPYTFGQGTKLEIKRTVAAPSVFIFPPSDEQLKSGTASVVCLLNNFYPREAKVQWKVDNALQSGNSQESVTEQDSKDSTYSLSSTLTLSKADYEKHKVYACEVTHQGLSSPVTKSFNRGEC
heavy 2: EVQLVESGGGLVQPGGSLRLSCAASGFTFNTYAMNWVRQAPGKGLEWVARIRSKYNNYATYYAASVKGRFTISRDDSKNSLYLQMNSLKTEDTAVYYCARHGNFGNSYVSWFAYWGQGTLVTVSSASTKGPSVFPLAPCSRSTSESTAALGCLVKDYFPEPVTVSWNSGALTSGVHTFPAVLQSSGLYSLSSVVTVPSSSLGTKTYTCNVDHKPSNTKVDKRVESKYGPPCPPCPAPEAAGGPSVFLFPPKPKDTLMISRTPEVTCVVVDVSQEDPEVQFNWYVDGVEVHNAKTKPREEQFNSTYRVVSVLTVLHQDWLNGKEYKCKVSNKGLPSSIEKTISKAKGQPREPQVYTLPPSQEEMTKNQVSLTCLVKGFYPSDIAVEWESNGQPENNYKTTPPVLDSDGSFLLYSKLTVDKSRWQEGNVFSCSVMHEALHNHYTQKSLSLSLGK
light 2: QTVVTQEPSLTVSPGGTVTLTCRSSTGAVTTSNYANWVQQKPGQAPRGLIGGTNKRAPGTPARFSGSLLGGKAALTLSGVQPEDEAEYYCALWYSNLWVFGGGTKLTVLGQPKAAPSVTLFPPSSEELQANKATLVCLISDFYPGAVTVAWKADSSPVKAGVETTTPSKQSNNKYAASSYLSLTPEQWKSHRSYSCQVTHEGSTVEKTVAPTECS
notes: Positive control, GPRC5D x CD3 bispecific of Johnson & Johnson (WO 2019220368 A1), made by reduction and reoxidation of the two parental antibodies
B10: REGN5459 (bispecific antibody, human IgG4 S228P, kappa)
heavy 1: EVQLVESGGGLVQPGGSLRLSCAASGFTFSNFWMTWVRQAPGKGLEWVANMNQDGSEKYYVDSVKGRFTISRDNAKSSLYLQMNSLRAEDTAVYYCARDREYCISTSCYDDFDYWGQGTLVTVSSASTKGPSVFPLAPCSRSTSESTAALGCLVKDYFPEPVTVSWNSGALTSGVHTFPAVLQSSGLYSLSSVVTVPSSSLGTKTYTCNVDHKPSNTKVDKRVESKYGPPCPPCPAPPVAGPSVFLFPPKPKDTLMISRTPEVTCVVVDVSQEDPEVQFNWYVDGVEVHNAKTKPREEQFNSTYRVVSVLTVLHQDWLNGKEYKCKVSNKGLPSSIEKTISKAKGQPREPQVYTLPPSQEEMTKNQVSLTCLVKGFYPSDIAVEWESNGQPENNYKTTPPVLDSDGSFFLYSRLTVDKSRWQEGNVFSCSVMHEALHNHYTQKSLSLSLGK
heavy 2: EVQLVESGGGLVQPGRSLRLSCAASGFTFDDYSMHWVRQAPGKGLEWVSGISWNSGSIGYADSVKGRFTISRDNAKNSLYLQMNSLRAEDTALYYCAKYGSGYGKFYYYGMDVWGQGTTVTVSSASTKGPSVFPLAPCSRSTSESTAALGCLVKDYFPEPVTVSWNSGALTSGVHTFPAVLQSSGLYSLSSVVTVPSSSLGTKTYTCNVDHKPSNTKVDKRVESKYGPPCPPCPAPPVAGPSVFLFPPKPKDTLMISRTPEVTCVVVDVSQEDPEVQFNWYVDGVEVHNAKTKPREEQFNSTYRVVSVLTVLHQDWLNGKEYKCKVSNKGLPSSIEKTISKAKGQPREPQVYTLPPSQEEMTKNQVSLTCLVKGFYPSDIAVEWESNGQPENNYKTTPPVLDSDGSFFLYSRLTVDKSRWQEGNVFSCSVMHEALHNRFTQKSLSLSLGK
light: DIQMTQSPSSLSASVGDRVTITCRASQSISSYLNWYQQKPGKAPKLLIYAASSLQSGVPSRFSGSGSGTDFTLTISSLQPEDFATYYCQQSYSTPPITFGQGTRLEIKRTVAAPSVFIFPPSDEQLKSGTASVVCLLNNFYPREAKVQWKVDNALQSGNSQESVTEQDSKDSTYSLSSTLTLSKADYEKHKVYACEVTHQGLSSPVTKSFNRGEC
notes: Positive control, BCMA x CD3 bispecific of Regeneron (WO 2020018820 A1), made in Expi293F; Fc with mutations that prevent homodimerization; also called RGEN5459

T2 sequence (Q95LI5 22-198): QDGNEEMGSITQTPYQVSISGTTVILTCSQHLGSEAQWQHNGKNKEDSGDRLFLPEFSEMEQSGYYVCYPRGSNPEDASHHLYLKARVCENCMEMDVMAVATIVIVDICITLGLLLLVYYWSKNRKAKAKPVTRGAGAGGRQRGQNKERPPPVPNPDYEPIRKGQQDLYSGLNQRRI

The target in the first assay is T1, human BCMA on Flp-inCHO-human BCMA cells (human, UniProt Q02223 1-184).
T1 construct: whole, on cells
T1 sequence (looked up): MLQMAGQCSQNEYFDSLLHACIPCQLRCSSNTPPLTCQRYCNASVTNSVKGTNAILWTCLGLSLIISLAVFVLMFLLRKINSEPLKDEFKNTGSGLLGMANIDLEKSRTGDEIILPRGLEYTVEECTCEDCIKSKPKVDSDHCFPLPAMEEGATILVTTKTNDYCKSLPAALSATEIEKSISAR
The assay is described as follows: FACS, Flp-inCHO-human BCMA cells.
For the molecule B1, the binding result is “no binding (tested: 100 nM highest concentration)”.
One may read the EC50 as the concentration needed to bring the measured effect to its halfway point. Molecule B2 yielded an EC50 of 1.21 nM.
Molecule B3 gave a 50% effective concentration (EC50) of 2.53 nM.
Same read-out and setting: as for B4, the figure is 1.52 nM; as for B5, 0.92 nM.
Same read-out and setting: as for B6, the figure is 5.19 nM; as for B7, 2.27 nM; as for B8, 2.03 nM.
For B9, the binding result is “no binding (tested: 100 nM highest concentration)”.

A further assay has as its target T2, monkey CD3 on activated monkey PBMC (monkey).
T2 construct: whole, on cells
Kind of assay: FACS, activated monkey PBMC.
B1: the EC50 was 15.2 nM and 12.4 nM.
For the molecule B2, the EC50 is 249 nM and the “Maximum mean fluorescence intensity” value came out at 5280.
For the molecule B3, the “Maximum mean fluorescence intensity” value turned out to be 1970.
Still for that read-out and setting: as for B4, the figure is 417.
With B5, the response was half-maximal at 159 nM (EC50) and the “Maximum mean fluorescence intensity” value was determined as 2030.
B6: the “Maximum mean fluorescence intensity” value is 416.
The same measure, in the same setting: as for B7, the figure is 5630; as for B8, 1680.
As for B9, the EC50 is 5.79 nM and 5.72 nM.
B10: the EC50 worked out at 161 nM.

The target in the next assay is T3, human CD3 on Jurkat cells and on activated human PBMC (human, UniProt P07766 23-207; P04234 22-171).
T3 construct: whole, on cells; Endogenous CD3 of the T cell receptor complex on cells
T3 sequence (P07766 23-207, chain 1 of 2): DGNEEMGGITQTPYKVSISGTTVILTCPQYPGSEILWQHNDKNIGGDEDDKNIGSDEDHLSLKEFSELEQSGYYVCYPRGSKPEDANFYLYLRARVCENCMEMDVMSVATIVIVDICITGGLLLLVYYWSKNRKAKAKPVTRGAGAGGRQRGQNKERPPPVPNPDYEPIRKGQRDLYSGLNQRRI
T3 sequence (P04234 22-171, chain 2 of 2): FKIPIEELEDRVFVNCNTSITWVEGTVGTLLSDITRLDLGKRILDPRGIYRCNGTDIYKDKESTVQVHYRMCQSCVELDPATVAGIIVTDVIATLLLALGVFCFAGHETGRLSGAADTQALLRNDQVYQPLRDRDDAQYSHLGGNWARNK
Kind of assay: FACS, activated human PBMC.
As for B2, the EC50 turned out to be 92.1 nM and the “Maximum mean fluorescence intensity” value came to 3510.
The corresponding values for B3 are 81.4 nM and 2240.
Consider B4, for which the “Maximum mean fluorescence intensity” value was 235.
B5: a half-maximal effect (EC50) was put at 149 nM and the “Maximum mean fluorescence intensity” value was 2260.
Turning to B7, a half-maximal response (EC50) required 161 nM and the “Maximum mean fluorescence intensity” value turned out to be 6730.
B8: the “Maximum mean fluorescence intensity” value worked out at 1780.
Regarding B9, the concentration giving a half-maximal response (EC50) was 5.21 nM and 7.36 nM.
Turning to B10, the EC50 is 223 nM and 221 nM.

A further assay deals with T4, human GPRC5D on CHOK1-human GPRC5D cells (human, UniProt Q9NZD1 1-345).
T4 construct: whole, on cells
T4 sequence (Q9NZD1 whole entry): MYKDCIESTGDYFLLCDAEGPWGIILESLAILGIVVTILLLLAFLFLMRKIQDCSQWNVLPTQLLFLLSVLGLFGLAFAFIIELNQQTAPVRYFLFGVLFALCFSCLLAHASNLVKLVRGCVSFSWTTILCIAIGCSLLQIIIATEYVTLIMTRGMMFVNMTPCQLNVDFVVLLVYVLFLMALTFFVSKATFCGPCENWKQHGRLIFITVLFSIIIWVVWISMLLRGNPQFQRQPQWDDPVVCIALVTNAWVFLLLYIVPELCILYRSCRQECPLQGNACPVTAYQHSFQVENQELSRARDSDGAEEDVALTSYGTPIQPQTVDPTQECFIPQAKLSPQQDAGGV
Kind of assay: FACS, CHOK1-human GPRC5D cells. (Flow cytometry measures light scatter and fluorescence of single cells or particles in a stream.)
With B1, the binding result was “no binding (tested: 100 nM highest concentration)”.
With B2, the EC50 is 0.59 nM.
Molecule B3 displayed an EC50 of 1.78 nM.
Still for that read-out and setting: as for B4, the figure is 4.3 nM; as for B5, 6.26 nM; as for B6, 2.36 nM.
Turning to B7, the concentration giving a half-maximal response (EC50) was 1.39 nM.
As for B8, the EC50 was 3.06 nM.
For the molecule B10, the binding result is recorded as “no binding (tested: 100 nM highest concentration)”.

For another assay, the target named is T3, human CD3 on Jurkat cells and on …. Kind of assay: FACS, Jurkat cells.
As for B2, the “Maximum mean fluorescence intensity” value is 1800.
On the same count and under the same terms, as for B3, the figure is 320; as for B4, 85.
Consider B5, for which it took 179 nM to reach a half-maximal effect (EC50) and the “Maximum mean fluorescence intensity” value was found to be 4690.
On to B7, for which the “Maximum mean fluorescence intensity” value stood at 418.
For B8, the concentration for a half-maximal effect (EC50) was 370 nM and the “Maximum mean fluorescence intensity” value was 3120.
As to B10, the EC50 is 74.7 nM and 49.7 nM and 66.8 nM and 101 nM.
